Target: T1, FcγRIIa R (human, UniProt P12318 34-217)
T1 construct: extracellular domain; also called FcgRIIa R type; 2aR
T1 sequence (looked up): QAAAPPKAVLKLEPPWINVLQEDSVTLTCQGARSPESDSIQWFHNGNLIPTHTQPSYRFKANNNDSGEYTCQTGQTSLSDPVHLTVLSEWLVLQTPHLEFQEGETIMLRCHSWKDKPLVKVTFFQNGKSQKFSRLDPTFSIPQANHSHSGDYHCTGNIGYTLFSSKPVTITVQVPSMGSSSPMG
Experiment: SPR (Biacore), captured antibody, FcγR as analyte; relative binding activity
Procedure: Analysis of interaction between objective antibody and the FcγR was carried out using Biacore T100 (GE Healthcare). HBS-EP+ (GE Healthcare) was used as the running buffer, and the measurement temperature was set to 25° C. Chips produced by immobilizing the antigen peptide by the amine coupling method to a Series S Sencor Chip CM5 (GE Healthcare), or alternatively, chips produced by allowing preliminarily biotinylated antigen peptides to interact with and immobilize onto a Series S Sensor Chip SA (certified) (GE Healthcare) were used. Antibodies of interest were captured onto an antigen peptide-immobilized chip, and allowed to interact to each FcγR diluted with running buffer. To regenerate and repeatedly use the chip, the antibodies captured on the chip were washed off by reacting 10 mM glycine-HCl, pH 1.5.

B1: GpH7-B3 variant G237_09D/GpL16-k0 (antibody, human IgG1, kappa)
heavy: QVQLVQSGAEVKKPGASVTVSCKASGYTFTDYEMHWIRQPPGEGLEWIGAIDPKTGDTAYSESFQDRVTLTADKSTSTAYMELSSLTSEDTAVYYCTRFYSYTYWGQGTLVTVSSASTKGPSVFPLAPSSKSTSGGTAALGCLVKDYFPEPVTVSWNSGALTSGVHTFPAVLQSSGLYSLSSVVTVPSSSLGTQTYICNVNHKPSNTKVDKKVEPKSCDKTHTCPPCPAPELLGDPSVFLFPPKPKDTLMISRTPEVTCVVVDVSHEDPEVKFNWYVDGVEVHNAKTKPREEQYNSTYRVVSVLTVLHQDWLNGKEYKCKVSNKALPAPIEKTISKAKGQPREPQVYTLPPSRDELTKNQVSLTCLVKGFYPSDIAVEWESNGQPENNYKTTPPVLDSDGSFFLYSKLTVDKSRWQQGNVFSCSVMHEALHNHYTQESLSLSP
light: DIVMTQSPLSLPVTPGEPASISCQASESLVHSNRNTYLHWYLQKPGQSPQLLIYKVSNRFSGVPDRFSGSGSGTDFTLKISRVEAEDVGVYYCSQNTHVPPTFGQGTKVEIERTVAAPSVFIFPPSDEQLKSGTASVVCLLNNFYPREAKVQWKVDNALQSGNSQESVTEQDSKDSTYSLSSTLTLSKADYEKHKVYACEVTHQGLSSPVTKSFNRGEC
notes: also called Ho Ab G237_09D
- Ho/Con_2aR: 73.1 % (GpH7-B3/GpL16-k0 = 100)

B2: GpH7-B3 variant K326_03V/GpL16-k0 (antibody, human IgG1, kappa)
heavy: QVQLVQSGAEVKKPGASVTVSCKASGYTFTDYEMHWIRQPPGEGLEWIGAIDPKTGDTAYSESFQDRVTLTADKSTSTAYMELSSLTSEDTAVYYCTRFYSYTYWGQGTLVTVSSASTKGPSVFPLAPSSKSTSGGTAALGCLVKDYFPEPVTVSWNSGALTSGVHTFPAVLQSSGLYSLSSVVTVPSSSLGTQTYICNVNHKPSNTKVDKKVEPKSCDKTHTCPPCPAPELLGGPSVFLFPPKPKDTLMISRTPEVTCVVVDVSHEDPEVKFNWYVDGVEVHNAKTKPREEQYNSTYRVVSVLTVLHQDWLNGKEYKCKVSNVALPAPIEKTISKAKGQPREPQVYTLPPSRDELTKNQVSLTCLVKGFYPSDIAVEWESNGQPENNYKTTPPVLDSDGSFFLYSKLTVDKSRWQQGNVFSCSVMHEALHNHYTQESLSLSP
light: DIVMTQSPLSLPVTPGEPASISCQASESLVHSNRNTYLHWYLQKPGQSPQLLIYKVSNRFSGVPDRFSGSGSGTDFTLKISRVEAEDVGVYYCSQNTHVPPTFGQGTKVEIERTVAAPSVFIFPPSDEQLKSGTASVVCLLNNFYPREAKVQWKVDNALQSGNSQESVTEQDSKDSTYSLSSTLTLSKADYEKHKVYACEVTHQGLSSPVTKSFNRGEC
notes: also called Ho Ab K326_03V
- Ho/Con_2aR: 139 % (GpH7-B3/GpL16-k0 = 100)

B3: GpH7-B3 variant I336_08L/GpL16-k0 (antibody, human IgG1, kappa)
heavy: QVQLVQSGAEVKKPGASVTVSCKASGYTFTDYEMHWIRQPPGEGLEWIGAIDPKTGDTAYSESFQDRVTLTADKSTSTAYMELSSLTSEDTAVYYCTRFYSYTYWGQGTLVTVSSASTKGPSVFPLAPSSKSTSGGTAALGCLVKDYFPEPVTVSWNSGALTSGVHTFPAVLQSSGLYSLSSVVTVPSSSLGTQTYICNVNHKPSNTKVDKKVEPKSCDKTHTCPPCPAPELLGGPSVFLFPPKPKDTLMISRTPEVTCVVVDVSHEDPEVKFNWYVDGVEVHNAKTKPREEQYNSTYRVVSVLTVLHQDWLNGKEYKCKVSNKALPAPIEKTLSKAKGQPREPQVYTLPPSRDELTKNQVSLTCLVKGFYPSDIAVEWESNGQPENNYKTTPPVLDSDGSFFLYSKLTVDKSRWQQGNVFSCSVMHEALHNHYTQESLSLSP
light: DIVMTQSPLSLPVTPGEPASISCQASESLVHSNRNTYLHWYLQKPGQSPQLLIYKVSNRFSGVPDRFSGSGSGTDFTLKISRVEAEDVGVYYCSQNTHVPPTFGQGTKVEIERTVAAPSVFIFPPSDEQLKSGTASVVCLLNNFYPREAKVQWKVDNALQSGNSQESVTEQDSKDSTYSLSSTLTLSKADYEKHKVYACEVTHQGLSSPVTKSFNRGEC
notes: also called Ho Ab I336_08L
- Ho/Con_2aR: 105 % (GpH7-B3/GpL16-k0 = 100)

B4: GpH7-B3 variant G237_10E/GpL16-k0 (antibody, human IgG1, kappa)
heavy: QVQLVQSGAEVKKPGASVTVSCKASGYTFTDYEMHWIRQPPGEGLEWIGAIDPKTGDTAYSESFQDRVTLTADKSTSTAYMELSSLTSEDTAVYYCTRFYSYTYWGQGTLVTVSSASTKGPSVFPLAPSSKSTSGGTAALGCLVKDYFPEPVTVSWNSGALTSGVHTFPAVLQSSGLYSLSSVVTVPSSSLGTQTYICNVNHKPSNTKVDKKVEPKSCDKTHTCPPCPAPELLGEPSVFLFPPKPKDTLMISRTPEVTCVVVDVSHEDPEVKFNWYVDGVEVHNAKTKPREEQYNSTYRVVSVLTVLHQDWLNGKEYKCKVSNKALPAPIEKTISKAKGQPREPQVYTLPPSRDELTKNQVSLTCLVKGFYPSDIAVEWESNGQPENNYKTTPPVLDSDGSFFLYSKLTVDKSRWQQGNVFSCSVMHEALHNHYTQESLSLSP
light: DIVMTQSPLSLPVTPGEPASISCQASESLVHSNRNTYLHWYLQKPGQSPQLLIYKVSNRFSGVPDRFSGSGSGTDFTLKISRVEAEDVGVYYCSQNTHVPPTFGQGTKVEIERTVAAPSVFIFPPSDEQLKSGTASVVCLLNNFYPREAKVQWKVDNALQSGNSQESVTEQDSKDSTYSLSSTLTLSKADYEKHKVYACEVTHQGLSSPVTKSFNRGEC
notes: also called Ho Ab G237_10E
- Ho/Con_2aR: 22.5 % (GpH7-B3/GpL16-k0 = 100)

B5: GpH7-B3 variant I332_14T/GpL16-k0 (antibody, human IgG1, kappa)
heavy: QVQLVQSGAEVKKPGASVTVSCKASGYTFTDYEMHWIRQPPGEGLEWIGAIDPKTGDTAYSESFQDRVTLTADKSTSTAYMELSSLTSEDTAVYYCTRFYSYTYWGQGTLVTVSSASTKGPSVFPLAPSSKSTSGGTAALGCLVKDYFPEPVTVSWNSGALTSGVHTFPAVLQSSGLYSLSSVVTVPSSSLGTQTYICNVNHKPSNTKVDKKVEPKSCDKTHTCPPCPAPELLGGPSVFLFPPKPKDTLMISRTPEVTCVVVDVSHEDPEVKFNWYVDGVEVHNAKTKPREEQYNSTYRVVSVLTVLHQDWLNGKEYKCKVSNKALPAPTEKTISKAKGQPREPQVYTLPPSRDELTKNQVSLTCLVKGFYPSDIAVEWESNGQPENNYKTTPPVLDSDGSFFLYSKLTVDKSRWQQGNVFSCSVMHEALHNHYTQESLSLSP
light: DIVMTQSPLSLPVTPGEPASISCQASESLVHSNRNTYLHWYLQKPGQSPQLLIYKVSNRFSGVPDRFSGSGSGTDFTLKISRVEAEDVGVYYCSQNTHVPPTFGQGTKVEIERTVAAPSVFIFPPSDEQLKSGTASVVCLLNNFYPREAKVQWKVDNALQSGNSQESVTEQDSKDSTYSLSSTLTLSKADYEKHKVYACEVTHQGLSSPVTKSFNRGEC
notes: also called Ho Ab I332_14T
- Ho/Con_2aR: 99.6 % (GpH7-B3/GpL16-k0 = 100)

B6: GpH7-B3 variant I336_18N/GpL16-k0 (antibody, human IgG1, kappa)
heavy: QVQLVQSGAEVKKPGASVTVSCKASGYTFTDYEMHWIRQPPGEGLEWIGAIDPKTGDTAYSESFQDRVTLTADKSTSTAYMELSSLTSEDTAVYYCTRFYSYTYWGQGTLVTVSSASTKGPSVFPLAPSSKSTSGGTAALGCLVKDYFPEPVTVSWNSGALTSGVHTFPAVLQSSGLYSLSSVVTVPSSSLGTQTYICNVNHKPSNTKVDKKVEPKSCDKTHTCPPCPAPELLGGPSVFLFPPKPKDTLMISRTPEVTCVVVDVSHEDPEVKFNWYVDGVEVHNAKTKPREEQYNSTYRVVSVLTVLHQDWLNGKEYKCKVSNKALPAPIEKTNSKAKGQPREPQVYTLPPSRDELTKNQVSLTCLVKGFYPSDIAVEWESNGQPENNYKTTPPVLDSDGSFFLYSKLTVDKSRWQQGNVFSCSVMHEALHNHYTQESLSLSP
light: DIVMTQSPLSLPVTPGEPASISCQASESLVHSNRNTYLHWYLQKPGQSPQLLIYKVSNRFSGVPDRFSGSGSGTDFTLKISRVEAEDVGVYYCSQNTHVPPTFGQGTKVEIERTVAAPSVFIFPPSDEQLKSGTASVVCLLNNFYPREAKVQWKVDNALQSGNSQESVTEQDSKDSTYSLSSTLTLSKADYEKHKVYACEVTHQGLSSPVTKSFNRGEC
notes: also called Ho Ab I336_18N
- Ho/Con_2aR: 94.5 % (GpH7-B3/GpL16-k0 = 100)

B7: GpH7-B3 variant I336_06M/GpL16-k0 (antibody, human IgG1, kappa)
heavy: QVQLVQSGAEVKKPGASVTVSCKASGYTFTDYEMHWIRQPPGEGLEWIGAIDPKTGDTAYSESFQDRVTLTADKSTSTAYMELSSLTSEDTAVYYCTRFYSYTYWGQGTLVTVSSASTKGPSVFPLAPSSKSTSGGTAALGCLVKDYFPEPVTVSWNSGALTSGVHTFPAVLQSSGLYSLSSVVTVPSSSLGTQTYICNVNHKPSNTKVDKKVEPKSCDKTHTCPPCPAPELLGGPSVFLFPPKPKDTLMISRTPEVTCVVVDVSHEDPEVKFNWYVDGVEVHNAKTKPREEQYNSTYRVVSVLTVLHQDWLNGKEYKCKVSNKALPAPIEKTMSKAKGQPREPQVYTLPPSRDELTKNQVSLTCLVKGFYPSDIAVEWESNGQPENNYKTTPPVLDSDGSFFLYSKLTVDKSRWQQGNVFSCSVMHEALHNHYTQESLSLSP
light: DIVMTQSPLSLPVTPGEPASISCQASESLVHSNRNTYLHWYLQKPGQSPQLLIYKVSNRFSGVPDRFSGSGSGTDFTLKISRVEAEDVGVYYCSQNTHVPPTFGQGTKVEIERTVAAPSVFIFPPSDEQLKSGTASVVCLLNNFYPREAKVQWKVDNALQSGNSQESVTEQDSKDSTYSLSSTLTLSKADYEKHKVYACEVTHQGLSSPVTKSFNRGEC
notes: also called Ho Ab I336_06M
- Ho/Con_2aR: 96.4 % (GpH7-B3/GpL16-k0 = 100)

B8: GpH7-B3 variant G237_20W/GpL16-k0 (antibody, human IgG1, kappa)
heavy: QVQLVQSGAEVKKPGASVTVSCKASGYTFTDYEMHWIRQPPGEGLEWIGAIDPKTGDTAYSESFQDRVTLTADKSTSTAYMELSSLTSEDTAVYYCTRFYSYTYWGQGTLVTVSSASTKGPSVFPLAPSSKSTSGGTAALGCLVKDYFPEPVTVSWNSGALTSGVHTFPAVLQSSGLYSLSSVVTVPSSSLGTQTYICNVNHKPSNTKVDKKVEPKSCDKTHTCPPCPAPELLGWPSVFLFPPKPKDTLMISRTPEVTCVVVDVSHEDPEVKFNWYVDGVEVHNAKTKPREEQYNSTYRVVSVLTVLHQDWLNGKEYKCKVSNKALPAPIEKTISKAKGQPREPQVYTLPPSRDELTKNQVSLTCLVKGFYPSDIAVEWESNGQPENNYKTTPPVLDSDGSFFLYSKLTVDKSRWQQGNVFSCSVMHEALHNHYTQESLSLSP
light: DIVMTQSPLSLPVTPGEPASISCQASESLVHSNRNTYLHWYLQKPGQSPQLLIYKVSNRFSGVPDRFSGSGSGTDFTLKISRVEAEDVGVYYCSQNTHVPPTFGQGTKVEIERTVAAPSVFIFPPSDEQLKSGTASVVCLLNNFYPREAKVQWKVDNALQSGNSQESVTEQDSKDSTYSLSSTLTLSKADYEKHKVYACEVTHQGLSSPVTKSFNRGEC
notes: also called Ho Ab G237_20W
- Ho/Con_2aR: 107 % (GpH7-B3/GpL16-k0 = 100)

B9: GpH7-B3 variant H268_05P/GpL16-k0 (antibody, human IgG1, kappa)
heavy: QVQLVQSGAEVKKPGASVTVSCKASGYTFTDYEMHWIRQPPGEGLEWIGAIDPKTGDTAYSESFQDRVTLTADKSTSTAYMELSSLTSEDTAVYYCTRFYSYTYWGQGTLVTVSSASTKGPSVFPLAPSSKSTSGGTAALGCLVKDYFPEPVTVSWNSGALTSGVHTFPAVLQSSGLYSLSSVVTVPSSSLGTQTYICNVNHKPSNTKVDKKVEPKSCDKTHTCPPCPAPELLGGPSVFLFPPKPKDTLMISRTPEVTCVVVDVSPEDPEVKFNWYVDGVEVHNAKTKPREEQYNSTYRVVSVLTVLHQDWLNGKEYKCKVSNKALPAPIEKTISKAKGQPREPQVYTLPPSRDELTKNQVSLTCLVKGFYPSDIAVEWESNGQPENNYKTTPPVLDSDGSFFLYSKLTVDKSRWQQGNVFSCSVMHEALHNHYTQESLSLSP
light: DIVMTQSPLSLPVTPGEPASISCQASESLVHSNRNTYLHWYLQKPGQSPQLLIYKVSNRFSGVPDRFSGSGSGTDFTLKISRVEAEDVGVYYCSQNTHVPPTFGQGTKVEIERTVAAPSVFIFPPSDEQLKSGTASVVCLLNNFYPREAKVQWKVDNALQSGNSQESVTEQDSKDSTYSLSSTLTLSKADYEKHKVYACEVTHQGLSSPVTKSFNRGEC
notes: also called Ho Ab H268_05P
- Ho/Con_2aR: 95.9 % (GpH7-B3/GpL16-k0 = 100)

B10: GpH7-B3 variant K326_07I/GpL16-k0 (antibody, human IgG1, kappa)
heavy: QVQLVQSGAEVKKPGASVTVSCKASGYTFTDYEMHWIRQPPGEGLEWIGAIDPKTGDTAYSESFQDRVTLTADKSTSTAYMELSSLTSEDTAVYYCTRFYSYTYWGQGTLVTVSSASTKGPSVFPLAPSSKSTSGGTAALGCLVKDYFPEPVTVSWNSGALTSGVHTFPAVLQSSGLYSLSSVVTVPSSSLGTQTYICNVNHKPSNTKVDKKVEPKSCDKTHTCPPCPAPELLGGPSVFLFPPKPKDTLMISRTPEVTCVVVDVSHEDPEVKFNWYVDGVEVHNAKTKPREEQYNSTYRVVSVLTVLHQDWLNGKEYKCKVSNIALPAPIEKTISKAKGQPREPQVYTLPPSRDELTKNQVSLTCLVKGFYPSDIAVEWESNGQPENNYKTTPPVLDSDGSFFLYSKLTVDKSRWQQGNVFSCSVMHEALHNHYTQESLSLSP
light: DIVMTQSPLSLPVTPGEPASISCQASESLVHSNRNTYLHWYLQKPGQSPQLLIYKVSNRFSGVPDRFSGSGSGTDFTLKISRVEAEDVGVYYCSQNTHVPPTFGQGTKVEIERTVAAPSVFIFPPSDEQLKSGTASVVCLLNNFYPREAKVQWKVDNALQSGNSQESVTEQDSKDSTYSLSSTLTLSKADYEKHKVYACEVTHQGLSSPVTKSFNRGEC
notes: also called Ho Ab K326_07I
- Ho/Con_2aR: 133 % (GpH7-B3/GpL16-k0 = 100)

From patent US20150344570A1 (published 2015)
